Data from US20150258192A1, “COMPOSITIONS AND METHODS FOR PREVENTING OR TREATING CHRONIC LUNG ALLOGRAFT DYSFUNCTION (CLAD) AND IDIOPATHIC PULMONARY FIBROSIS (IPF)” (priority 2014, published 2015).
No end group written: not given here.

Legend:
Assay in all cases: Kinase Profiling Assay
Type in all cases: biochemical
Conditions in all cases: peptide 100 μM
[1] = target: T1, MSK1(h) (Homo sapiens, UniProt O75582)
T1 construct: purchased Millipore
Procedure: (§1) Every kinase activity measurement was conducted in duplicate.
(§2) Specifically, in these assays, a positively charged substrate is phosphorylated with a radiolabeled phosphate group from an ATP if the kinase is not inhibited by an inhibitor peptide. The positively charged substrate then is attracted to a negatively charged filter membrane, quantified with a scintillation counter, and compared to a 100% activity control.
(§3) In addition to determining the IC50 of the compound, the specificity of MK2 inhibitory peptides was assessed by examining activities of all 266 human kinases available for testing in the Millipore kinase profiling service (Table 1).

[2] = target: T2, Met(M1268T)(h) (Homo sapiens, UniProt P08581, M1250T)
T2 construct: purchased Millipore
Procedure: as §1, §2, §3

[3] = target: ALK(h) (Homo sapiens, UniProt Q9UM73)
Procedure: as §1, §2, §3

[4] = target: Fyn(h) (Homo sapiens, UniProt P06241)
Procedure: as §1, §2, §3

[5] = target: AMPKα2(h) (Homo sapiens, UniProt P54646)
Procedure: as §1, §2, §3

[6] = target: T3, ULK3(h) (Homo sapiens, UniProt Q6PHR2)
T3 sequence (Q6PHR2 1-472): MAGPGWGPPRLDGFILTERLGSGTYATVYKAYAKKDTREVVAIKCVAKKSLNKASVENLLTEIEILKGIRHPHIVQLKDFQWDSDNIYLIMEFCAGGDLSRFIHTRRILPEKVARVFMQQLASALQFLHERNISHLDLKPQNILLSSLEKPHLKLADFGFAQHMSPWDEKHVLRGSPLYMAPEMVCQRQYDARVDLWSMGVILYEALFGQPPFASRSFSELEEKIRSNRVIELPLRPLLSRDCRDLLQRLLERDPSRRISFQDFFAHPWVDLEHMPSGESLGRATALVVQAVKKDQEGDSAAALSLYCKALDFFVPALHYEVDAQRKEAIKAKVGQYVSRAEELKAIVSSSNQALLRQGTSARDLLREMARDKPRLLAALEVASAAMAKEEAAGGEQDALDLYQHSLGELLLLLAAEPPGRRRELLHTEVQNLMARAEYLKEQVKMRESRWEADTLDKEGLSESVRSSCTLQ
Procedure: as §1, §2, §3

[7] = target: T4, MST1(h) (Homo sapiens, UniProt Q13043)
T4 construct: purchased Millipore
T4 sequence (Q13043 1-487): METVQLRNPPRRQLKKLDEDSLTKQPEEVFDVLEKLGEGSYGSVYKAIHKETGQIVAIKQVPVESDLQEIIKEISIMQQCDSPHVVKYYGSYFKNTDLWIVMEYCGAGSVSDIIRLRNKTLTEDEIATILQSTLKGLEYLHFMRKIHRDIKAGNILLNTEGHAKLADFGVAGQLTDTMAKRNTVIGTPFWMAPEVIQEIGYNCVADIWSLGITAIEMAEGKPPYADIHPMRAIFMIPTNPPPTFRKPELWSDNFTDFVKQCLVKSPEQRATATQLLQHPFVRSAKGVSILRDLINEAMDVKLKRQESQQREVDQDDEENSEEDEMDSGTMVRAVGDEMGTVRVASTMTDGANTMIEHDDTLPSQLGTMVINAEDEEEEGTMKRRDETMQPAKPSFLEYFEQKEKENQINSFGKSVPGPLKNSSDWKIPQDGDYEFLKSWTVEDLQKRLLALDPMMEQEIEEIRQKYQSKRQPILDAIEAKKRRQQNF
Procedure: as §1, §2, §3

[8] = target: ROCK-I(h) (Homo sapiens, UniProt Q13464)
Procedure: as §1, §2, §3

[9] = target: TrkB(h) (Homo sapiens, UniProt Q16620)
Procedure: as §1, §2, §3

[10] = target: Tie2(Y897S)(h) (Homo sapiens, UniProt Q02763, Y897S)
Procedure: as §1, §2, §3

[11] = target: T5, TSSK1(h) (Homo sapiens, UniProt Q9BXA7)
T5 sequence (Q9BXA7 1-367): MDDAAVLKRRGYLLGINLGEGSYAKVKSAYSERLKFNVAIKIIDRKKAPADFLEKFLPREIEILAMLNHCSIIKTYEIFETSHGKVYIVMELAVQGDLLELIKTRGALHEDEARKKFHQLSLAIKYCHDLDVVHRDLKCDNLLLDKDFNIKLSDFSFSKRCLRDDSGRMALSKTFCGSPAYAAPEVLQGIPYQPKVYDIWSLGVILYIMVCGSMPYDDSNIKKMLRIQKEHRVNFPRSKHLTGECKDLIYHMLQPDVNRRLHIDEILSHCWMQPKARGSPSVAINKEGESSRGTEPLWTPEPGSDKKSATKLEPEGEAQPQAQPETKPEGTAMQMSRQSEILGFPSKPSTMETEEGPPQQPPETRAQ
Procedure: as §1, §2, §3

Chain of Tie2(Y897S)(h) (Q02763 23-1124 Y897S): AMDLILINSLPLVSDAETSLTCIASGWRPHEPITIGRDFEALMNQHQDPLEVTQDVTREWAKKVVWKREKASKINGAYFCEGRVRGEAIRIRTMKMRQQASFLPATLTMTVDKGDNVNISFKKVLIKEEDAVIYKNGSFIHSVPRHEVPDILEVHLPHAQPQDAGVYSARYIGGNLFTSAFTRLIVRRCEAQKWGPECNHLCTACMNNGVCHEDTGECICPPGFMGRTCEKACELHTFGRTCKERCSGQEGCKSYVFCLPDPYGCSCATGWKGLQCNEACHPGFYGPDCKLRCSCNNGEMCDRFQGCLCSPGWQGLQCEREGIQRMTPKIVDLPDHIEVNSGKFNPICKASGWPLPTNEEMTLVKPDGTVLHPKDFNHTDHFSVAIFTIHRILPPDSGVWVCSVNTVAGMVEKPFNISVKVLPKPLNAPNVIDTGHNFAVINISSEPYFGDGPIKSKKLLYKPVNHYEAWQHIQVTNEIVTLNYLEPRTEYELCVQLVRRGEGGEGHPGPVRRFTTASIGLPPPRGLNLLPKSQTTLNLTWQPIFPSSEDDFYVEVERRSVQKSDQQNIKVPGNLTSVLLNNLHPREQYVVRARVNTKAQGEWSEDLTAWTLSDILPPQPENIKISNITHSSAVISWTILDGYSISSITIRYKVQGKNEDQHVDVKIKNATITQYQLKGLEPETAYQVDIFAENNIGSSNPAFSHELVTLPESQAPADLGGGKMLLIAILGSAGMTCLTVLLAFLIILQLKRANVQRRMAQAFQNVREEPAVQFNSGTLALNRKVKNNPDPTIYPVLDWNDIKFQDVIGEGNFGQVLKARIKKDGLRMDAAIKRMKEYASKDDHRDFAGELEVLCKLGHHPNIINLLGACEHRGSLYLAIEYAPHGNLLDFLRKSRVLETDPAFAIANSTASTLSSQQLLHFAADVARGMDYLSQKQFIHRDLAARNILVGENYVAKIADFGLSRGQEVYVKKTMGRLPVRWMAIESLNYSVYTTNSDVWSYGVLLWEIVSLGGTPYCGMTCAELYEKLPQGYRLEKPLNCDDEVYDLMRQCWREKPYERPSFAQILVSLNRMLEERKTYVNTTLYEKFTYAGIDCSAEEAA
Chain of ROCK-I(h) (Q13464 whole entry): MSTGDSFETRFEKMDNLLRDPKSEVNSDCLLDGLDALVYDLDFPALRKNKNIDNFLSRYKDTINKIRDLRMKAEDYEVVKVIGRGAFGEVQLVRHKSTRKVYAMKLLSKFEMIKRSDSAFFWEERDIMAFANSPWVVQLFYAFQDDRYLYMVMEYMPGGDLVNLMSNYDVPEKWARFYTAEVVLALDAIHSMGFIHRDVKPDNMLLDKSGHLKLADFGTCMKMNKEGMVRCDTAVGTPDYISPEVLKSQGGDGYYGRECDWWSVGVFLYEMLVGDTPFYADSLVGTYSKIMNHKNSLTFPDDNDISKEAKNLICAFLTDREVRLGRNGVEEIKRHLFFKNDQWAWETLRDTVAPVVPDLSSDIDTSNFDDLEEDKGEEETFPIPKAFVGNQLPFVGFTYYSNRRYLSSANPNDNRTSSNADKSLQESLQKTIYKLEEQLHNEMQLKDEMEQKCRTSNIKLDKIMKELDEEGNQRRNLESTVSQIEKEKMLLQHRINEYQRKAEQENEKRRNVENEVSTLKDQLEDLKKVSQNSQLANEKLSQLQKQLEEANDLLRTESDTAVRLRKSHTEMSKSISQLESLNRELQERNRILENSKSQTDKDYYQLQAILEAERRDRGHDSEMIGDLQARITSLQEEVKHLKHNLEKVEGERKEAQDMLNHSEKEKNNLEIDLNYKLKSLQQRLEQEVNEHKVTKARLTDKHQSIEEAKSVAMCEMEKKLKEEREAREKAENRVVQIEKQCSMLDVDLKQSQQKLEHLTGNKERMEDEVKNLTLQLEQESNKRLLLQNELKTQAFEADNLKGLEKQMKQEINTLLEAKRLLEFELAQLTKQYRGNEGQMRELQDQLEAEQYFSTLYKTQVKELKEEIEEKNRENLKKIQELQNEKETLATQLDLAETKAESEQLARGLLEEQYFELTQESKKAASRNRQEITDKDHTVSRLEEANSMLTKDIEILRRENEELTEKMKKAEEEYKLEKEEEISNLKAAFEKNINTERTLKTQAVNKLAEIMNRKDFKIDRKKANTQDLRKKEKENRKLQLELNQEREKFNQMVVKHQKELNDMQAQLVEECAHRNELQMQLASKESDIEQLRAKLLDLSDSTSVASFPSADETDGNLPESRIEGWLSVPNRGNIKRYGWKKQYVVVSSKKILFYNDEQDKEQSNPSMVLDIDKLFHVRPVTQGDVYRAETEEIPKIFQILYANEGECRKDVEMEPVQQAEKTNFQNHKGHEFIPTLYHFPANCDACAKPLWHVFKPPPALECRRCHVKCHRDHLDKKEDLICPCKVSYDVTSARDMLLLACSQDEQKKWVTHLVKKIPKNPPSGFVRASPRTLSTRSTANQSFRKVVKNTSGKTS
T1 sequence (O75582 whole entry): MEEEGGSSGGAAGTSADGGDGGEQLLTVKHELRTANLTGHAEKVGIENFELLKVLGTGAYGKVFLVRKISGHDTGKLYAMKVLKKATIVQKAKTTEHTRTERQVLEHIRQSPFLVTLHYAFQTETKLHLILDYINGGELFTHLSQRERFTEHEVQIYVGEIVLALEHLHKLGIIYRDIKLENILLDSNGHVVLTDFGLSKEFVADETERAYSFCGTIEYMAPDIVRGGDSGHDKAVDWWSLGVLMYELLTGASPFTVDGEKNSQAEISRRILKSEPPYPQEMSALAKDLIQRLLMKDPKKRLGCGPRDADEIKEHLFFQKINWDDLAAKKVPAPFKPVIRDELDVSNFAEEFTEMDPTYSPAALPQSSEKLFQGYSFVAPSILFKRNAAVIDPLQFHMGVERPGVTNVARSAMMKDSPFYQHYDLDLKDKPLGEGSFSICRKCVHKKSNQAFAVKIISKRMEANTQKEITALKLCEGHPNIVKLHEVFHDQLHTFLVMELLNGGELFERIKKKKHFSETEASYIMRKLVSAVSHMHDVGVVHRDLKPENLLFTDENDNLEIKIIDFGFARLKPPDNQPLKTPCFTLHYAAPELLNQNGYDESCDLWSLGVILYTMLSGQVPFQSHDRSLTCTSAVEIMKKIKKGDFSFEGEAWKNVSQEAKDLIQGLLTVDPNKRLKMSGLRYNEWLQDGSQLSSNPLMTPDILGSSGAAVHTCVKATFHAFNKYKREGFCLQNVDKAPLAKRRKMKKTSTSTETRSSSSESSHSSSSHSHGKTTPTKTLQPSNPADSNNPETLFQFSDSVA
Chain of Fyn(h) (P06241 whole entry): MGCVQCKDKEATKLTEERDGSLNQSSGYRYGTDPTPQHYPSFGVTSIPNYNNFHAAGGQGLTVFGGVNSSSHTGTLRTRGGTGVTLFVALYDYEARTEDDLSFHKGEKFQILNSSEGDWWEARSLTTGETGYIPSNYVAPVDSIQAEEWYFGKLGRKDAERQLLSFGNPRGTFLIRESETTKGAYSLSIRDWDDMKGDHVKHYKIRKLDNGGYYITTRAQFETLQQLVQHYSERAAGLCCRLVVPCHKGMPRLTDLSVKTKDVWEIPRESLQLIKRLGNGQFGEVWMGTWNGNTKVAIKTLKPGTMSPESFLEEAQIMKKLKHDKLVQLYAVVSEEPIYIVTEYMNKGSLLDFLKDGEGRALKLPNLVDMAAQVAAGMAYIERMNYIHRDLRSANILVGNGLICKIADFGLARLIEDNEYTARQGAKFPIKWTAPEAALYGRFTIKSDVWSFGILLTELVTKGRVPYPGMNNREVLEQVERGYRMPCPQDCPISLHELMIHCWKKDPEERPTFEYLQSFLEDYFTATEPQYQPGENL
Chain of AMPKα2(h) (P54646 whole entry): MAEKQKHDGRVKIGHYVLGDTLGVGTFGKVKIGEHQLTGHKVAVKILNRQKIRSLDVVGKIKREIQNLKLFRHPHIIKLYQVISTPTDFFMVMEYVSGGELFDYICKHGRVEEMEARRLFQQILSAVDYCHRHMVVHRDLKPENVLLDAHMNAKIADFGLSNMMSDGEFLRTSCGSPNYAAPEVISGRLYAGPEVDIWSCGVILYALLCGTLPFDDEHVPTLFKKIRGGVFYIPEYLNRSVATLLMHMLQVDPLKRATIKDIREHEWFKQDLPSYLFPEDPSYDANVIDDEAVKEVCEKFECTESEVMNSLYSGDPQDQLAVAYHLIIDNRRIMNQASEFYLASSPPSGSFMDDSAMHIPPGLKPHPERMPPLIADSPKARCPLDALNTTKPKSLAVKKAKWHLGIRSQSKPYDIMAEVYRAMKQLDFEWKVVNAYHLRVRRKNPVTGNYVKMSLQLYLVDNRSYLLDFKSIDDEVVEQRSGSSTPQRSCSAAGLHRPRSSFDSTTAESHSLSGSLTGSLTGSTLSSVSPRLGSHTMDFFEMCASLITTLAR
Chain of AMPKα2(h) (Q9Y478 whole entry partner): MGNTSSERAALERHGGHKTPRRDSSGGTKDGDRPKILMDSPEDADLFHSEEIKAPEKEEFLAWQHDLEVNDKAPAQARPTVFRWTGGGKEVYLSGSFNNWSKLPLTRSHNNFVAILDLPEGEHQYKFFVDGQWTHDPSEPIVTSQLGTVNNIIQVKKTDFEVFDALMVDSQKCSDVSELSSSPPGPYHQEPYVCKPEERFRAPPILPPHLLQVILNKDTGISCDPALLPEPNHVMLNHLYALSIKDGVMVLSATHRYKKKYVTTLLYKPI
Chain of AMPKα2(h) (P54619 whole entry partner): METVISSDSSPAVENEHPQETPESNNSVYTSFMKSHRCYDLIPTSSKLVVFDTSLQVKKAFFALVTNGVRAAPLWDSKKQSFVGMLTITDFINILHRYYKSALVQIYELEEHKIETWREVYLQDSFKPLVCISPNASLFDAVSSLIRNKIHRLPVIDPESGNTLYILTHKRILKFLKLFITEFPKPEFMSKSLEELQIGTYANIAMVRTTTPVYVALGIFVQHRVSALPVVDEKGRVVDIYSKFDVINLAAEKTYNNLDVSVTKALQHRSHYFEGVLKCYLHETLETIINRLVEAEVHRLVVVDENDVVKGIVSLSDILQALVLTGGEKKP

| Sequence | % activity [1] [%] | % activity [2] [%] | % activity [3] [%] | % activity [4] [%] | % activity [5] [%] | % activity [6] [%] | % activity [7] [%] | % activity [8] [%] | % activity [9] [%] | % activity [10] [%] | % activity [11] [%] |
| --- | --- | --- | --- | --- | --- | --- | --- | --- | --- | --- | --- |
| KAFAKLAARLYRKALARQLGVAA [MMI-0400] | 28 | 265 | 16 | 54 | 58 | 147 | 6 | 73 | 8 | 87 | 79 |
| FAKLAARLYRKALARQLGVAA [MMI-0300] | 32 | 255 | 19 | 74 | 54 | 167 | 14 | 79 | 5 | 83 | 79 |
| YARAAARQARAKALARQLGVAA [MMI-0100] | – | – | 118 | – | – | 142 | – | – | 4 | 99 | 99 |
| HRRIKAWLKKIKALARQLGVAA (Mammal) [MMI-0500] | 8 | 239 | 12 | 83 | 9 | 177 | 3 | 17 | 12 | 80 | 46 |
| YARAAARQARAKALNRQLGVA (Mammal) [MMI-0200] | 50 | 143 | 95 | 75 | 88 | 164 | 72 | – | 7 | 85 | 98 |
